# Experimental data published in the RNAGym collection of RNA variant scans (doi:10.1073/pnas.2313332121).
# This sample holds only a part of the variants without activity.
# B1: TPR 5TU (parent)
# chain: GGAUCUUCUCGAUCUAACAAAAAAGACAAAUCUGCCACAAAGCUUGAGAGCAUCUUCGGAUGCAGAGGCGGCAGCCUUCGGUGGCGCGAUAGCGCCAACGUUCUCAACUAUGACACGCAAAACGCGUGCUCCGUUGAAUGGAGUUUAUCAUG
# Variants of: B1
# Test: polymerase ribozyme fitness, log enrichment relative to wild type (log ratio); higher = more active; in vitro selection for triplet polymerase activity
# In short: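 Mutant libraries were PCR-built and transcribed for each subunit of a heterodimeric triplet polymerase ribozyme and selected for one round in triplicate at −7 °C, frozen, before gel excision of extended constructs and streptavidin-bead capture. Input and output libraries were Illumina-sequenced, keeping genotypes with ≥10 input reads and ≥1 read per output. Fitness is a logarithmic ratio of genotype to wild-type enrichment, in base 2, using inverse-variance-weighted replicate averages.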
row,Variant,polymerase ribozyme fitness (log ratio)
1,G50C U109G A113G A120C U130G,≤ -4.2
2,A49C A64U G67U G68A G71A,≤ -4.2
3,G50U C57A C76A A122U C131G,≤ -4.2
4,A47U U77C,-4.09
5,G50C A60G,-2.31
6,A47U G83C A142G,-2.42
7,G50C A89U G94U C96U A115G,≤ -4.2
8,C51A C54G G59C G84A C116G,-3.63
9,A49C A73G C93U U127A,≤ -4.2
10,G48C G68C G70A C129G,≤ -4.2
11,A49G A66G G71C C87G C95G A120G G124C A142U,≤ -4.2
12,A49C A52U A60G G94A A97G,-3.63
13,G50C G68U C85U G92U A106G,≤ -4.2
14,G50U G83A A97U A98U,0.0748
15,A49U C51A U55G C95A,-2.79
16,G50C G71A C95U G117C G143A,≤ -4.2
17,G50A C116A,-0.537
18,G48C C99U C105G,≤ -4.2
19,C51A C85U C103G G124A U145G A150G,≤ -4.2
20,A49U G67A C95U C114G A142C,≤ -4.2
21,A47U G84U,-1.78
22,G48A G62A A73U A91G C95G U139A A142C,≤ -4.2
23,G50C G58A,-1.56
24,A49C C54A U78C C85U,-3.91

row,Variant,polymerase ribozyme fitness (log ratio)
1,G50C A137C G141U,≤ -4.2
2,G48U U134G,-2.34
3,G48A A52G C116U,-0.319
4,A49U G59A A122U,-0.783
5,G50A G133C,-3.28
6,G50U G74A C85U,-3.88
7,A49U G141A,-1.34
8,G50U U61A C93G C105U A107G,≤ -4.2
9,G50C G86A C103G G124U C125U G126C,≤ -4.2
10,A47U U61A,-1.41
11,A47U G70U A122G,-3.45
12,A49C U134G,≤ -4.2
13,G50U C57A C72U G84A,-0.724
14,G48C A73U U101C U104A A115G G124U,≤ -4.2
15,G50C C87A C114G A150C,≤ -4.2
16,G50U C93G,-3.35
17,A49C U56A A113U G152U,-3.93
18,G50A C54G U77G A97U A120G,≤ -4.2
19,G48A U55A A119U G124U U144C,-1.13
20,G48C C51A C54A C63U G68A U77C G88A C96U A142G,≤ -4.2
21,A49G C51G U78C C96G,-4.14
22,G48A A60G G83U G126U U134C,-3.58
23,G50A C54U C85U G92U U148A,≤ -4.2
24,A49C U109G,≤ -4.2

row,Variant,polymerase ribozyme fitness (log ratio)
1,A49C C96G,-3.45
2,A49G G50A G84A A97G,-3.11
3,G48C C118U,-0.625
4,G50U A73U G84A U109G,≤ -4.2
5,G48U A49C G68U G74A C76A G88U C116G,≤ -4.2
6,A49C C75G C87A,≤ -4.2
7,G50U A89U C93U C99U U145A,-3.4
8,A49C A137C,≤ -4.2
9,A49U C51U A147C,-0.373
10,G50U C87U C114A,-3.78
11,G50A C93A A97G C99U U109G,≤ -4.2
12,G48C C85U,-1.95
13,G50A U61A G81U G83C A91U U104G G143A,≤ -4.2
14,C51A C72A G80U U146C,≤ -4.2
15,G50C G80A C85U C87U C108U,≤ -4.2
16,G50U A52C A107G,≤ -4.2
17,A49G U53A U144G,-0.883
18,A49C U146A,-3.98
19,G50A A64G,-3.77
20,A49G U55G G88A U139C U145A,≤ -4.2
21,A49U C96A,-3.45
22,G50C G86U U111G,≤ -4.2
23,G50C C95A,-2.7
24,G48A A52G U55G G70C C96A,≤ -4.2

row,Variant,polymerase ribozyme fitness (log ratio)
1,A49U G68C,≤ -4.2
2,G50A A120G A122U A150U,-2.03
3,G50C U55G G67A C75A C87U U134G A137G,≤ -4.2
4,G50A C108A G124U U148G,≤ -4.2
5,A49U G59A C85A,-3.41
6,G50A C54U U56A G70A C87G U90A C95G U109G C114G G141U,≤ -4.2
7,A49G C54U U109G,-2.26
8,G50A C79U A138G,≤ -4.2
9,G50C C85A C93A,≤ -4.2
10,G50C G94A U127C G133U A138C,≤ -4.2
11,G50U G84U,-1.81
12,A49U G133U,-3.93
13,G50C G74C A120G G124U G126A,≤ -4.2
14,G48A G84C G100C,≤ -4.2
15,G48C A64G G70U G94U U144G C149A,≤ -4.2
16,A49C C69U G84A C93U C96U C129G U148C,≤ -4.2
17,G50U C54G,-1.98
18,G50C C87A C93A C99U A137U A138C,≤ -4.2
19,A49C A64U C87A U104G G143A,≤ -4.2
20,A49U G50A,-0.047
21,G50A A73U C96G A98U A120U A137G,≤ -4.2
22,A49G A91G A142C,-3.71
23,G48A G86C C123A C125G,-3.94
24,A49U C93A,-3.3

row,Variant,polymerase ribozyme fitness (log ratio)
1,G48C C79A G86U C96U G124A,≤ -4.2
2,G48U U77C C79G G143U,≤ -4.2
3,G50C G83A,-3.65
4,G48C G83U,-1.41
5,A47U U55G G68A G84U U151A,≤ -4.2
6,A49U U55A U56G,-1.76
7,G50A U55A A91U U135C,≤ -4.2
8,C51A A52C C75A G83U G88C A91G C123G G126U A147U U151G,≤ -4.2
9,G48C U102G,-2.42
10,A49U G84U A97G C114G,≤ -4.2
11,G50A C125A,-1.79
12,A49U U55G G58A C123A G126U U148A,≤ -4.2
13,G50A A98U G126A,-1.26
14,G50U C72U A97C,-0.611
15,G50U A122G U148A,-3.37
16,G48C C63A G83A G133C,-3.98
17,G50C C87U A113C C116A G143U U145C,≤ -4.2
18,A49C C116A G143C,≤ -4.2
19,G48C A120C,-0.573
20,A49G C54A C116G A121U,-2.34
21,A47U U55A C87U,-2.17
22,A49G U53C A98U A121G,-1.87
23,G50C G65A,-3.27
24,G50C G59U C118U,-2.35

row,Variant,polymerase ribozyme fitness (log ratio)
1,G50U G83A C95G A107G,≤ -4.2
2,G48A C85G C125G,-4.1
3,A49C A115U,≤ -4.2
4,G50U C95A C125G,-0.894
5,G50A G94U,-3.07
6,G50U C54U C93A G136U,-4.07
7,C51A A91G,-3.53
8,C51A A52G G68A A142C U144A,≤ -4.2
9,G50C A120U A121C,-2.61
10,G50A G84U A147U,-1.53
11,G50U U77A C87A,≤ -4.2
12,G50C G86A,≤ -4.2
13,G50U A60U C76A G80U U101G A107U,≤ -4.2
14,G48A G67U G84U C105G,≤ -4.2
15,G48U C85U,-0.485
16,G48A A137G C149U,-3.82
17,A49G C51A G94A G124U,-3.32
18,G50C A98U U101A,≤ -4.2
19,G50U A150G,-2.11
20,A49C G59C A91U,≤ -4.2
21,G50C C93A C103G A113G A115U G140C,≤ -4.2
22,A49U C57U C93G C103G U144C,≤ -4.2
23,G50C C87U A122U,-3.11
24,G48U G86U,-1.58

row,Variant,polymerase ribozyme fitness (log ratio)
1,A49C C99U U102G,-0.308
2,G50A G136U U144G U146C,-2.38
3,G50A C96G C129U,-3.02
4,G48U U56A C87G U90C,-4.07
5,A49U A150U,-0.0151
6,G50A C95A U111A U135A,≤ -4.2
7,C51A A52G U56G C79A,≤ -4.2
8,G50U C95G U104A,-1.95
9,A49U A52G C96U C99G,≤ -4.2
10,A49C U53G U56C A119C,≤ -4.2
11,A49C G81C C85U A98U U104C,≤ -4.2
12,G48A C57G G83C C87G U102A G112C A119C,≤ -4.2
13,C51A C63A G88U G126A,≤ -4.2
14,A49G A52C G86C,-3.61
15,G50C C54U U56A G59U,-3.48
16,G48C G80A C85U A120U A137G,≤ -4.2
17,A49C G65U G84U C96U A121U C125G,≤ -4.2
18,G50A C75U G83U C93U G141A,≤ -4.2
19,G50U G81A C96G A142U,-2.59
20,G50C G83C G88U U146A,≤ -4.2
21,G50A U56A G86A,-3.11
22,G50A U56A C87U G124A,-2.44
23,C51A C72U G74C C93A G141A,≤ -4.2
